According to paper PMC2935386, “Dissecting the Relation between a Nuclear Receptor and GATA: Binding Affinity Studies of Thyroid Hormone Receptor and GATA2 on TSHβ Promoter” (PLoS ONE, 2010):

Target: T1, human TRβ1ΔAB (TR DBD-LBD), thyroid hormone receptor β1 residues 102-461 (human, UniProt P10828-1 102-461)
T1 construct: Holo form (T3/TR) made by adding T3 in 3 times molar excess; also called TR DL; TRβ1 DL
T1 sequence (looked up): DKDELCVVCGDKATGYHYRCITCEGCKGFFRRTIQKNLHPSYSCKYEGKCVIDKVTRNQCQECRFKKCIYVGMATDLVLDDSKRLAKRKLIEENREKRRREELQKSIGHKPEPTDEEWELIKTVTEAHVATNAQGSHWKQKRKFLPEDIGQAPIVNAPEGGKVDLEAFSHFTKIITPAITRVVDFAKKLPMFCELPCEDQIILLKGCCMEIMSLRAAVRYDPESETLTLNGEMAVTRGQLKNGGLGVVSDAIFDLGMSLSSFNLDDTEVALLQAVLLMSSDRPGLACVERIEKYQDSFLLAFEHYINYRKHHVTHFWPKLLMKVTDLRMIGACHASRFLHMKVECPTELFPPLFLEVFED
Assay: fluorescence polarisation; fluorescence anisotropy; 10nM fluorescein-labeled GATA2-Zf titrated with unlabeled, unliganded TR DBD-LBD or TR DBD, 1nM to 10.000nM; 10°C, 50mM NaCl, 20mM Hepes pH8.0, 3mM dithiothreitol, 5% glycerol
Conditions: both partners purified

B1: fluorescein-labelled zinc finger region of GATA2 (GATA2-Zf), residues 291-412 (domain or fragment)
chain: not shown
modifications: fluorescein (fluorescein-isothiocyanate, three times molar excess; site not stated)
notes: GATA2, zinc finger region, residues 291-412; removal of the His tag is surmised from that; Two vectors are named (pET31a, pET28a(+)); also called fluorophore-labelled GATA2-Zf; fluorescein-labeled GATA2-Zf
Question: For B1, which Kd is on record?
Answer: 1170 nM
